Patent US20120201826A1

Target: recombinant human RANTES (huRANTES, Peprotech) (human) (UniProt P13501)
Assay: cell-based or functional assay

recombinant human RANTES (huRANTES, Peprotech) (human), sequence (P13501 24-91): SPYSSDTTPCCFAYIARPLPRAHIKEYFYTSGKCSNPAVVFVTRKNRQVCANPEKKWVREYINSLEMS

B1: A5 scFv (scFv, part only; not given: linker and tags, part only)
scFv, part: QVQLVQSGAEVKKPGASVKVSCKVSGYALSELSIHWVRQAPGKGLEWMSYIDPEDGEPIYAQKFQGRATMTEDSSTDTAYMEMGSLTSDDTAVYYCAGVTGSTSDAFDLWGRGTLVTVSSSYVLTQDPSVSVAPGQTARITCGGANLWGLGVHWYQQKSGQAPVLVVSDNSDRASGIPERFSGSNSGTTATLTLSRVEVGDEADYYCQVWDSSSDHWVFGGRTKLTVL
Chemotaxis IC50 (nM); L1.2 cells expressing hCCR5, 1 nM huRANTES; scFv format: 21 nM
